Laboratory results as given in the supplement of paper PMC12667976.

B1: library; numbered along this chain (parent)
chain: MATDAALRRLLRLHRTEIAVAVDSAFPLLHALADHDVVPEDKFQETLHLKEKEGCPQAFHALLSWLLTQDSTAILDFWRVLFKDYNLERYGRLQPILDSFPKDVDLSQPRKGRKPPAVPKALVPPPRLPTKRKASEEARAAAPAALTPRGTASPGSQLKAKPPKKPESSAEQQRLPLGNGIQTMSASVQRAVAMSSGDVPGARGAVEGILIQQVFESGGSKKCIQVGGEFYTPSKFEDSGSGKNKARSSSGPKPLVRAKGAQGAAPGGGEARLGQQGSVPAPLALPSDPQLHQKNEDECAVCRDGGELICCDGCPRAFHLACLSPPLREIPSGTWRCSSCLQATVQEVQPRAEEPRPQEPPVETPLPPGLRSAGEEVRGPPGEPLAGMDTTLVYKHLPAPPSAAPLPGLDSSALHPLLCVGPEGQQNLAPGARCGVCGDGTDVLRCTHCAAAFHWRCHFPAGTSRPGTGLRCRSCSGDVTPAPVEGVLAPSPARLAPGPAKDDTASHEPALHRDDLESLLSEHTFDGILQWAIQSMARPAAPFPS

Variants of: B1
Assay: AIRE transcriptional activation functional score (insulin promoter-GFP; nonsense median 0, synonymous median 1) (normalised score); higher = higher AIRE activity (more reporter activation)
Details: with insulin promoter-GFP reporter in HEK293
Summary of the method: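 The functional score compares variant enrichment between select and non-select populations after subtracting wild type. To obtain it, codon-optimized AIRE NNN-codon libraries spanning three regions were placed by Bxb1 recombinase into Flp-In T-REx HEK293 landing-pad cells with an insulin core promoter-GFP reporter. Cells with the top 10% GFP and unselected integrants were tile-sequenced after mCherry+, BFP− integrants had been sorted at day 7 and grown 7 more days. Only variants with 10 counts per million in non-select were kept, rescaled to nonsense median 0 and synonymous median 1, and averaged across biological replicates.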

AIRE transcriptional activation functional score of substitutions, site by site:
P497: Q 1.02; M 1.19; K 0.828; C 1.28
S491: F 1.05; T 0.571; Y 1.35; N 0.925; C 1.29; M 1.31; I 1.1; R 0.586; P 1.1; A 0.995; W 1.03; E 1.06; K 0.437; H 1.42; Q 0.998; L 0.845; D 0.749; G 0.752; V 0.901
D503: K 0.372; T 1.41; C 0.896; Q 0.845; P 0.73; L 1; S 0.908; N 0.852; F 0.724; A 0.958; Y 1.14; V 0.937; H 0.851; E 0.774; R 0.543; G 0.835; I 0.789
G498: S 0.556; Q 0.969; M 1.24; A 1.09; T 1.09; K 0.572; N 0.869; Y 1.2; E 1.1; D 0.318; I 0.895; L 1.11; C 1.23; H 1.42; V 1.36; R 0.839; W 1.45
A493: H 1.46; S 1.29; I 1.04; P 0.631; Q 0.91; G 1.15; C 1.13; Y 1.13; K 0.774; D 0.802; L 1.09; R 1.15; F 1.17; T 0.878; N 1.04; W 0.996; M 1.19; V 1.1; E 0.985
P490: T 1.13; F 0.986; S 1.11; G 1.51; M 0.144; K 1.17; E 0.916; N 0.697; V 0.606; C 1.26; H 0.603; I 1.17; L 1.12; R 1.07; D 0.28; Q 0.417; W -0.0714
A500: N 0.646; Q 1.34; M 0.733; I 1.1; K 0.785; W 1.42; S 1.17; H 1.22; P 0.844; E 0.98; F 0.977; L 0.907; V 1.04; G 0.758; D 1.19; R 0.915; C 1.07; T 1.12; Y 0.944
P492: K 0.595; D -0.0101; L 1.02; F 1.04; V 1.07; I 1.13; A 0.732; R 0.779; S 1.03; T 1.31; M 1.76; E 0.938; N 1.18; G 1.01; W 0.687; Q 0.812; C 0.756; Y 0.427; H 0.521
K501: I 0.714; Q 1.08; V 0.712; R 1.11; C 0.625; S 1.3; G 0.947; Y 0.863; P 0.836; F 1.17; E 0.49; M 0.223; A 0.451; T 1.04; H 0.51; N 1.03; W 0.734; D 0.395; L 0.792
L495: D 1.68; I 1.22; S 0.995; F 1.18; R 0.848; G 1.05; C 0.97; K 0.745; H 1.23; A 1.42; E 1; V 1.07; Y 1.35; Q 0.974; P 0.262; T 0.948; M 0.186
